According to patent publication US20200131277A1:

Target: pY peptide GGGpYGGG
Assay: BLI (Octet RED384), biotinylated peptide on streptavidin sensor, Fab in solution, 1:1 fit

PY20^4D5 (Fab)
Kd: 1830 nM

4G10^4D5 (Fab)
Kd: 277 nM
